Article PMC7036035

Tests used:
[1] = test system: C[C@H](CCC(=O)NCCS(=O)(=O)O)[C@H]1CC[C@H]2[C@@H]3[C@@H](O)C[C@@H]4C[C@H](O)CC[C@]4(C)[C@H]3CC[C@]12C; assay: purified protein; conditions: pH 7.5; 37.0 °C
[2] = test system: C[C@H](CCC(=O)NCCS(=O)(=O)O)[C@H]1CC[C@H]2[C@@H]3CC[C@@H]4C[C@H](O)CC[C@]4(C)[C@H]3C[C@H](O)[C@]12C; assay: purified protein; conditions: pH 7.5; 37.0 °C

In the case of “B. theta BSH (BT_2086) (Bacteroides thetaiotaomicron VPI-5482)”, the Km [1] is reported as 8.2 mM, the kcat [1] is reported as 0.255 ± 0.0133 s⁻¹ and the kcat/Km [1] is reported as 31.7 ± 5 M⁻¹ s⁻¹. The Km [2] was 3.4 mM, the kcat [2] was 0.215 ± 0.01 s⁻¹ and the kcat/Km [2] was 63.3 ± 11.7 M⁻¹ s⁻¹.
